Measurements taken from US20230272029A1, “CO-AGONISTS AT GLP-1 AND GIP RECEPTORS SUITABLE FOR ORAL DELIVERY” (Novo Nordisk A/S, priority 2020, published 2023).
Starred links: 1 amine or outer side, 2 acyl side, 3 side chain; linkers in the order of their positions; H or OH if unused. Non-standard residues stand in square brackets, D forms with d. Groups on a side chain read outwards from the residue. No end group written: not given here. *: point of attachment. C18 diacid = O=C(O)CCCCCCCCCCCCCCCCC(=O)*; γGlu = O=C(O)[C@H](CCC(=O)[*:2])N[*:1]; εLys = N[C@@H](CCCCN[*:1])C(=O)[*:2]; AEEA = NCCOCCOCC(=O)O; Aib = CC(C)(N)C(=O)O

T1: human GIP receptor (human, UniProt P48546 22-466)
T1 sequence (looked up): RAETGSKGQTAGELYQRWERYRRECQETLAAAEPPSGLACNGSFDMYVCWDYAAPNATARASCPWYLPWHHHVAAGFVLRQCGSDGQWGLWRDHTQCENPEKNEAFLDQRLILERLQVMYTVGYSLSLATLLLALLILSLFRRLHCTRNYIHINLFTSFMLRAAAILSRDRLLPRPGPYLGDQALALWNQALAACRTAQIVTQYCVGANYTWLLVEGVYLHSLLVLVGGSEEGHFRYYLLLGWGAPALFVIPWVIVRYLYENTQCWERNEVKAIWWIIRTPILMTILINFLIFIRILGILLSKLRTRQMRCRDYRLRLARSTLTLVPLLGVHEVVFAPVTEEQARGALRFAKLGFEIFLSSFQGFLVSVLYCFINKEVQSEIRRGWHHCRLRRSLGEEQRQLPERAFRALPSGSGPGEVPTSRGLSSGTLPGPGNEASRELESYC

B1: Compound No. 42 (peptide)
peptide: Y[Aib]EGTFTSDYSIYLEEQAAREFINWLLAGGPSK([εLys-εLys-γGlu-C18 diacid])GAPPPS-OH
modifications: N-terminus assumed
SMILES: CC[C@H](C)[C@H](NC(=O)[C@H](Cc1ccccc1)NC(=O)[C@H](CCC(=O)O)NC(=O)[C@H](CCCNC(=N)N)NC(=O)[C@H](C)NC(=O)[C@H](C)NC(=O)[C@H](CCC(N)=O)NC(=O)[C@H](CCC(=O)O)NC(=O)[C@H](CCC(=O)O)NC(=O)[C@H](CC(C)C)NC(=O)[C@H](Cc1ccc(O)cc1)NC(=O)[C@@H](NC(=O)[C@H](CO)NC(=O)[C@H](Cc1ccc(O)cc1)NC(=O)[C@H](CC(=O)O)NC(=O)[C@H](CO)NC(=O)[C@@H](NC(=O)[C@H](Cc1ccccc1)NC(=O)[C@@H](NC(=O)CNC(=O)[C@H](CCC(=O)O)NC(=O)C(C)(C)NC(=O)[C@@H](N)Cc1ccc(O)cc1)[C@@H](C)O)[C@@H](C)O)[C@@H](C)CC)C(=O)N[C@@H](CC(N)=O)C(=O)N[C@@H](Cc1c[nH]c2ccccc12)C(=O)N[C@@H](CC(C)C)C(=O)N[C@@H](CC(C)C)C(=O)N[C@@H](C)C(=O)NCC(=O)NCC(=O)N1CCC[C@H]1C(=O)N[C@@H](CO)C(=O)N[C@@H](CCCCNC(=O)[C@@H](N)CCCCNC(=O)[C@@H](N)CCCCNC(=O)CC[C@H](NC(=O)CCCCCCCCCCCCCCCCC(=O)O)C(=O)O)C(=O)NCC(=O)N[C@@H](C)C(=O)N1CCC[C@H]1C(=O)N1CCC[C@H]1C(=O)N1CCC[C@H]1C(=O)N[C@@H](CO)C(=O)O
B2: Compound No. 40 (peptide)
peptide: Y[Aib]EGTFTSDYSK([εLys-εLys-γGlu-C18 diacid])LLEEQAAREFIEWLLAGGPSSGAPPPS-OH
modifications: N-terminus assumed
SMILES: CC[C@H](C)[C@H](NC(=O)[C@H](Cc1ccccc1)NC(=O)[C@H](CCC(=O)O)NC(=O)[C@H](CCCNC(=N)N)NC(=O)[C@H](C)NC(=O)[C@H](C)NC(=O)[C@H](CCC(N)=O)NC(=O)[C@H](CCC(=O)O)NC(=O)[C@H](CCC(=O)O)NC(=O)[C@H](CC(C)C)NC(=O)[C@H](CC(C)C)NC(=O)[C@H](CCCCNC(=O)[C@@H](N)CCCCNC(=O)[C@@H](N)CCCCNC(=O)CC[C@H](NC(=O)CCCCCCCCCCCCCCCCC(=O)O)C(=O)O)NC(=O)[C@H](CO)NC(=O)[C@H](Cc1ccc(O)cc1)NC(=O)[C@H](CC(=O)O)NC(=O)[C@H](CO)NC(=O)[C@@H](NC(=O)[C@H](Cc1ccccc1)NC(=O)[C@@H](NC(=O)CNC(=O)[C@H](CCC(=O)O)NC(=O)C(C)(C)NC(=O)[C@@H](N)Cc1ccc(O)cc1)[C@@H](C)O)[C@@H](C)O)C(=O)N[C@@H](CCC(=O)O)C(=O)N[C@@H](Cc1c[nH]c2ccccc12)C(=O)N[C@@H](CC(C)C)C(=O)N[C@@H](CC(C)C)C(=O)N[C@@H](C)C(=O)NCC(=O)NCC(=O)N1CCC[C@H]1C(=O)N[C@@H](CO)C(=O)N[C@@H](CO)C(=O)NCC(=O)N[C@@H](C)C(=O)N1CCC[C@H]1C(=O)N1CCC[C@H]1C(=O)N1CCC[C@H]1C(=O)N[C@@H](CO)C(=O)O
B3: Compound No. 31 (peptide)
peptide: Y[Aib]EGTFTSDYSILLEK([εLys-εLys-γGlu-C18 diacid])QAAREFIEWLLAGGPSSGAPPPS-OH
modifications: N-terminus assumed
SMILES: CC[C@H](C)[C@H](NC(=O)[C@H](Cc1ccccc1)NC(=O)[C@H](CCC(=O)O)NC(=O)[C@H](CCCNC(=N)N)NC(=O)[C@H](C)NC(=O)[C@H](C)NC(=O)[C@H](CCC(N)=O)NC(=O)[C@H](CCCCNC(=O)[C@@H](N)CCCCNC(=O)[C@@H](N)CCCCNC(=O)CC[C@H](NC(=O)CCCCCCCCCCCCCCCCC(=O)O)C(=O)O)NC(=O)[C@H](CCC(=O)O)NC(=O)[C@H](CC(C)C)NC(=O)[C@H](CC(C)C)NC(=O)[C@@H](NC(=O)[C@H](CO)NC(=O)[C@H](Cc1ccc(O)cc1)NC(=O)[C@H](CC(=O)O)NC(=O)[C@H](CO)NC(=O)[C@@H](NC(=O)[C@H](Cc1ccccc1)NC(=O)[C@@H](NC(=O)CNC(=O)[C@H](CCC(=O)O)NC(=O)C(C)(C)NC(=O)[C@@H](N)Cc1ccc(O)cc1)[C@@H](C)O)[C@@H](C)O)[C@@H](C)CC)C(=O)N[C@@H](CCC(=O)O)C(=O)N[C@@H](Cc1c[nH]c2ccccc12)C(=O)N[C@@H](CC(C)C)C(=O)N[C@@H](CC(C)C)C(=O)N[C@@H](C)C(=O)NCC(=O)NCC(=O)N1CCC[C@H]1C(=O)N[C@@H](CO)C(=O)N[C@@H](CO)C(=O)NCC(=O)N[C@@H](C)C(=O)N1CCC[C@H]1C(=O)N1CCC[C@H]1C(=O)N1CCC[C@H]1C(=O)N[C@@H](CO)C(=O)O
B4: Compound No. 32 (peptide)
peptide: Y[Aib]EGTFTSDYSILLEK([AEEA-AEEA-γGlu-C18 diacid])QAAREFIEWLLAGGPSSGAPPPS-OH
modifications: N-terminus assumed
SMILES: CC[C@H](C)[C@H](NC(=O)[C@H](Cc1ccccc1)NC(=O)[C@H](CCC(=O)O)NC(=O)[C@H](CCCNC(=N)N)NC(=O)[C@H](C)NC(=O)[C@H](C)NC(=O)[C@H](CCC(N)=O)NC(=O)[C@H](CCCCNC(=O)COCCOCCNC(=O)COCCOCCNC(=O)CC[C@H](NC(=O)CCCCCCCCCCCCCCCCC(=O)O)C(=O)O)NC(=O)[C@H](CCC(=O)O)NC(=O)[C@H](CC(C)C)NC(=O)[C@H](CC(C)C)NC(=O)[C@@H](NC(=O)[C@H](CO)NC(=O)[C@H](Cc1ccc(O)cc1)NC(=O)[C@H](CC(=O)O)NC(=O)[C@H](CO)NC(=O)[C@@H](NC(=O)[C@H](Cc1ccccc1)NC(=O)[C@@H](NC(=O)CNC(=O)[C@H](CCC(=O)O)NC(=O)C(C)(C)NC(=O)[C@@H](N)Cc1ccc(O)cc1)[C@@H](C)O)[C@@H](C)O)[C@@H](C)CC)C(=O)N[C@@H](CCC(=O)O)C(=O)N[C@@H](Cc1c[nH]c2ccccc12)C(=O)N[C@@H](CC(C)C)C(=O)N[C@@H](CC(C)C)C(=O)N[C@@H](C)C(=O)NCC(=O)NCC(=O)N1CCC[C@H]1C(=O)N[C@@H](CO)C(=O)N[C@@H](CO)C(=O)NCC(=O)N[C@@H](C)C(=O)N1CCC[C@H]1C(=O)N1CCC[C@H]1C(=O)N1CCC[C@H]1C(=O)N[C@@H](CO)C(=O)O

The binders below were run against human GLP-1 receptor (human, UniProt P43220 24-463) (assay: cell-based or functional assay).

Row | Binder | hGLP-1R, CRE Luc 0% HSA EC50 (pM) | hGLP-1R, CRE Luc 1% HSA EC50 (pM)
1 | B1 | 2.3 pM | 83.5 pM
2 | B2 | 6.4 pM | 334 pM
3 | B3 | 4.2 pM | 202 pM
4 | B4 | 5 pM | 982 pM

What follows are binders tested against T1, human GIP receptor (assay: cell-based or functional assay).

Row | Binder | hGIPR, CRE Luc 0% HSA EC50 (pM) | hGIPR, CRE Luc 1% HSA EC50 (pM)
5 | B1 | 5.9 pM | 306 pM
6 | B2 | 9.5 pM | 501 pM
7 | B3 | 4.7 pM | 188 pM
8 | B4 | 7.1 pM | 679 pM
